Data as given in the Immune Epitope Database (IEDB).
Values belong to the sequence of their own block, whether it stands above or below them.

Key:
HLA-A*24:02 = experiment: IEDB peptide-MHC binding, purified MHC/competitive/radioactivity; ≥ and ≤ were set here for values at or beyond the usual limits of such assays; conditions: source organism: Homo sapiens
HLA-B*07:02 [1] = experiment: as above
HLA-A*02:01 [2] = experiment: IEDB peptide-MHC binding, purified MHC/competitive/radioactivity; filed as Kd, often an IC50 or EC50 that approximates it; ≥ and ≤ were set here for values at or beyond the usual limits of such assays; conditions: source organism: Human immunodeficiency virus 1
HLA-A*26:01 = experiment: IEDB peptide-MHC binding, purified MHC/competitive/fluorescence; filed as Kd, often an IC50 or EC50 that approximates it; ≥ and ≤ were set here for values at or beyond the usual limits of such assays; conditions: source organism: Choclo virus
HLA-B*39:01 = experiment: as above; conditions: source organism: Choclo virus
HLA-A*02:01 [3] = experiment: as above
HLA-B*46:01 = experiment: as above; conditions: source organism: Choclo virus
HLA-B*15:01 = experiment: as above; conditions: source organism: Choclo virus
HLA-B*15:42 = experiment: as above
HLA-B*35:01 = experiment: as above; conditions: source organism: Choclo virus
HLA-A*68:23 = experiment: as above
HLA-B*51:01 = experiment: as above; conditions: source organism: Choclo virus
HLA-B*83:01 = experiment: as above
HLA-B*45:06 = experiment: as above
HLA-A*69:01 = experiment: as above; conditions: source organism: Choclo virus
HLA-B*27:03 = experiment: as above
HLA-B*57:01 = experiment: as above
HLA-B*15:17 = experiment: as above; conditions: source organism: Choclo virus
HLA-A*02:03 = experiment: IEDB peptide-MHC binding, purified MHC/direct/fluorescence; filed as Kd, often an IC50 or EC50 that approximates it; ≥ and ≤ were set here for values at or beyond the usual limits of such assays; conditions: source organism: Choclo virus
HLA-A*24:03 = experiment: as above; conditions: source organism: Choclo virus
HLA-A*02:11 [4] = experiment: as above; conditions: source organism: Choclo virus
HLA-B*07:02 [5] = experiment: as above; conditions: source organism: Orthohantavirus andesense
HLA-A*02:16 = experiment: as above; conditions: source organism: Choclo virus
HLA-A*02:12 = experiment: as above; conditions: source organism: Choclo virus
HLA-A*23:01 = experiment: as above; conditions: source organism: Choclo virus
HLA-A*02:19 = experiment: as above; conditions: source organism: Choclo virus
HLA-A*03:01 [6] = experiment: as above; conditions: source organism: Choclo virus
HLA-A*68:02 = experiment: as above; conditions: source organism: Choclo virus
HLA-B*18:01 = experiment: IEDB peptide-MHC binding, purified MHC/competitive/fluorescence; filed as Kd, often an IC50 or EC50 that approximates it; ≥ and ≤ were set here for values at or beyond the usual limits of such assays; conditions: source organism: Rickettsia bellii RML369-C
HLA-A*80:01 = experiment: as above; conditions: source organism: Rickettsia bellii RML369-C
HLA-A*29:02 = experiment: as above; conditions: source organism: Rickettsia bellii RML369-C
HLA-A*02:11 [7] = experiment: as above; conditions: source organism: Rickettsia bellii RML369-C
HLA-A*03:01 [8] = experiment: as above; conditions: source organism: Rickettsia bellii RML369-C
HLA-C*03:03 = experiment: IEDB peptide-MHC binding, purified MHC/direct/fluorescence; filed as Kd, often an IC50 or EC50 that approximates it; ≥ and ≤ were set here for values at or beyond the usual limits of such assays; conditions: source organism: Rickettsia bellii RML369-C
HLA-C*05:01 = experiment: as above
HLA-A*32:15 = experiment: IEDB peptide-MHC binding, purified MHC/competitive/fluorescence; filed as Kd, often an IC50 or EC50 that approximates it; ≥ and ≤ were set here for values at or beyond the usual limits of such assays; conditions: source organism: Homo sapiens
HLA-C*06:02 = experiment: IEDB peptide-MHC binding, purified MHC/direct/fluorescence; filed as Kd, often an IC50 or EC50 that approximates it; ≥ and ≤ were set here for values at or beyond the usual limits of such assays; conditions: source organism: Homo sapiens
HLA-C*07:02 = experiment: as above; conditions: source organism: Homo sapiens
HLA-B*73:01 = experiment: as above; conditions: source organism: Mus musculus
[9] = source organism: Rickettsia bellii RML369-C

IC50 (HLA-A*24:02): 0.014 µM
Sequence: TYSVSFDSLF

Sequence: FATCGIFAL
IC50 (HLA-B*07:02 [1]; source organism: Lymphocytic choriomeningitis virus (strain Armstrong) (clone 53b)): 6.23 µM

Sequence: FPVRPQVPL
Kd (HLA-A*02:01 [2]): ≥ 35 µM
IC50 (HLA-B*07:02 [1]; source organism: Human immunodeficiency virus 1): 0.016 µM

IC50 (HLA-A*24:02): 0.067 µM
Sequence: NYARTEDFF

Sequence: LPSSSSYSY
Kd (HLA-A*26:01): ≥ 20 µM
Kd (HLA-B*39:01): ≥ 20 µM
Kd (HLA-A*02:01 [3]; source organism: Choclo virus): ≥ 20 µM
Kd (HLA-B*46:01): ≥ 20 µM
Kd (HLA-B*15:01): ≥ 20 µM
Kd (HLA-B*15:42; source organism: Choclo virus): ≥ 5 µM
Kd (HLA-B*35:01): ≤ 0.0001 µM
Kd (HLA-A*68:23; source organism: Choclo virus): 1.6 µM
Kd (HLA-B*51:01): ≥ 20 µM
Kd (HLA-B*83:01; source organism: Choclo virus): 0.747 µM
Kd (HLA-B*45:06; source organism: Choclo virus): ≥ 5 µM
Kd (HLA-A*69:01): ≥ 20 µM
Kd (HLA-B*27:03; source organism: Choclo virus): ≥ 20 µM
Kd (HLA-B*57:01; source organism: Choclo virus): ≥ 20 µM
Kd (HLA-B*15:17): ≥ 20 µM
Kd (HLA-A*02:03): ≥ 20 µM
Kd (HLA-A*24:03): ≥ 20 µM
Kd (HLA-A*02:11 [4]): ≥ 20 µM
Kd (HLA-B*07:02 [5]): 14 µM
Kd (HLA-A*02:16): ≥ 20 µM
Kd (HLA-A*02:12): ≥ 20 µM
Kd (HLA-A*23:01): ≥ 20 µM
Kd (HLA-A*02:19): ≥ 20 µM
Kd (HLA-A*03:01 [6]): ≥ 20 µM
Kd (HLA-A*68:02): ≥ 20 µM

Sequence: FTIGNMFSL
Kd (HLA-B*18:01): ≥ 20 µM
Kd (HLA-A*80:01): ≥ 20 µM
Kd (HLA-A*02:01 [3]; [9]): 0.0244 µM
Kd (HLA-A*29:02): 0.738 µM
Kd (HLA-A*02:11 [7]): 0.0059 µM
Kd (HLA-B*27:03; [9]): ≥ 20 µM
Kd (HLA-A*03:01 [8]): ≥ 20 µM
Kd (HLA-B*57:01; [9]): ≥ 20 µM
Kd (HLA-C*03:03): 0.055 µM
Kd (HLA-C*05:01; [9]): ≥ 20 µM

Kd (HLA-B*15:42; source organism: Homo sapiens): ≥ 5 µM
Kd (HLA-A*32:15): 0.295 µM
Kd (HLA-A*68:23; source organism: Homo sapiens): 0.271 µM
Kd (HLA-B*83:01; source organism: Homo sapiens): 0.069 µM
Kd (HLA-B*45:06; source organism: Homo sapiens): ≥ 5 µM
Kd (HLA-C*06:02): ≥ 20 µM
Kd (HLA-C*07:02): ≥ 20 µM
Kd (HLA-C*05:01; source organism: Homo sapiens): ≥ 20 µM
Kd (HLA-B*73:01): 6 µM
Sequence: MPMKGRFPI
